Reference: the DeepSol protein solubility set

Assay: soluble on expression in E. coli; label from the status in PepcDB or PDB records

Question: Which “soluble on expression in E. coli” value does the source give for “EMLYRSVDNRDIPQAMPKTIQALAHWDYQGLPDSEVVEAFSVELLALYETKALPKIANRMNIEVSGMRSLMMKTGRKLSRLEVLPTSIKELSRLDKRWADAKHWVAFKNLSGAITVNHYLAALDMQVNEMGEIEAQPEKRQIYVDLFFKT” here?
Answer: Its value is “not soluble”.

Question: For “MCMASKVLNKVMGIIGLNDEDFDEYEDEVMEEKAIARENSYDYDEKLNDKNSSNSNNKVVNIHTASSVKVVIVKPKDYDEATQIDDLKNRKIVVVNVTDLEPKTAQRLLDFMGGASYVLNGELLEIDKGVYLLSPSNVDISRDLKNDLASKSIFNWSKLEHHHHHH”, which “soluble on expression in E. coli” value is on record?
Answer: The value was “not soluble”.

Question: Which “soluble on expression in E. coli” value does the source give for “MEKGSVMSLFIYMSQSMFNFDALTPDFMWYALESIGIRAESGFLPLNSYENRVYQFTDEERRRYVVKFYRPERWSNEQIQEEHDFTLELIDSEIPVAPPVRINGNTLHHYQGYGFALFESVGGRQFEVDNLEQLEGVGRFLGRIHKVGSRQAFQHRPTIGLQEYLYQPREILQNANMIPMHLENSFFNDLDMLIKAIENHWQGSFATIRLHGDCHPGNILWRDGPMFVDLDDSRNGPAVQDLWMLLNGERQDKLMQLDIILEAYQEFCDFNAAELKLIEPLRGLRMVHYMAWLAKRWHDPAFPLAFPWFNEPKYWEGQVLAFKEQIASLEEAPLSLMPQWLEHHHHHH” here?
Answer: Its value is “not soluble”.

Question: For “EEAKEGVPKVAYISLSPPFVGNYALDGSPRLRVYKADVALRVTGDEAAKTVKHHEPLIRNQLVALFTQQTVDSMSNVEAKEHLRQEALKQVQQVLEAEEGKPIVEDLLFNNLIVQ”, which “soluble on expression in E. coli” value is on record?
Answer: The value was “not soluble”.

Question: Which “soluble on expression in E. coli” value does the source give for “MRLFFSLLILLSFFARATEPVQVFTDDLGRKVTVPAHPKRIVSLHDLDITIPLIELGVPPVASHGRTRPDGSHFIRSGALLTGVDFDNSSIAFIGTADIDIEAIVAAKPDLIITEPTRNTPIERLEKIAPTVSIDHLKGGAPEIYRKLAELTGTQSQLAILERRYQAQINALKATLDSQKITVSVIQANQGKINVMHSYHSLGRVLRDAGFRFPPLIESIPEGGRMDVSAERLPELDADFVFATWRGDTGGKPQDELAAMEKVMPGWCQFLTACRSGRYVLISREEAISNSFASLGLMAAQIQSQIAGRPLPEAK” here?
Answer: The value was “soluble”.

Question: With “MAIKVGINGFGRIGRSFFRASWGREEIEIVAINDLTDAKHLAHLLKYDSVHGIFKGSVEAKDDSIVVDGKEIKVFAQKDPSQIPWGDLGVDVVIEATGVFRDRENASKHLQGGAKKVIITAPAKNPDITVVLGVNEEKYNPKEHNIISNASCTTNCLAPCVKVLNEAFGVEKGYMVTVHAYTNDQRLLDLPHKDFRRARAAAINIVPTTTGAAKAIGEVIPELKGKLDGTARRVPVPDGSLIDLTVVVNKAPSSVEEVNEKFREAAQKYRESGKVYLKEILQYCEDPIVSTDIVGNPHSAIFDAPLTQVIDNLVHIAAWYDNEWGYSCRLRDLVIYLAERGL” as the sequence, how does the “soluble on expression in E. coli” value read?
Answer: Its value is “soluble”.

Question: Which “soluble on expression in E. coli” value does the source give for “MPVDLSKWSGPLSLQEVDEQPQHPLHVTYAGAAVDELGKVLTPTQVKNRPTSISWDGLDSGKLYTLVLTDPDAPSRKDPKYREWHHFLVVNMKGNDISSGTVLSDYVGSGPPKGTGLHRYVWLVYEQDRPLKCDEPILSNRSGDHRGKFKVASFRKKYELRAPVAGTCYQAEWDDYVPKLYEQLSGK” here?
Answer: Its value is “soluble”.

Question: Which “soluble on expression in E. coli” value does the source give for “SLELWLNKATDPSMSEQDWSAIQNFCEQVNTDPNGPTHAPWLLAHKIQSPQEKEALYALTVLEMCMNHCGEKFHSEVAKFRFLNELIKVLSPKYLGSWATGKVKGRVIEILFSWTVWFPEDIKIRDAYQMLKKQGIIKQDPKLPVDKI” here?
Answer: The value was “soluble”.

Question: With “MSLSRYPQLIQEQILKCKESWDSNSYKTSLRSFVYNKVNETDAILYTKPTNVSQEEWDKAIENKPSSDLIPIQVFGFEGLNNRNQIQVENVAQARVILNQILDKTKQLQQSHSFETSARIMKVQARNAQIEKRILKLGTQLAILKNRRLPLTISEEKMWGQFQELLKSSNDPAGLGKTNELWARLAVLRERAKTISEQLDSKLVIIGENGGQTGKPSASGDNNRVSDEVYDRIDKIAEILKNQQSGIAYLNDVLEKDNKALDSVVELKEGHHHHHH” as the sequence, how does the “soluble on expression in E. coli” value read?
Answer: Its value is “soluble”.

Question: For “GPRRLSIEGNIAVGKSTFVKLLTKTYPEWHVATEPVATWQNIQAAGNQKACTAQSLGNLLDMMYREPARWSYTFQTFSFLSRLKVQLEPFPEKLLQARKPVQIFERSVYSDRYIFAKNLFENGSLSDIEWHIYQDWHSFLLWEFASRITLHGFIYLQASPQVCLKRLYQRAREEEKGIELAYLEQLHGQHEAWLIHKTTKLHFEALMNIPVLVLDVNDDFSEEVTKQEDLMREVNTFVKNL”, which “soluble on expression in E. coli” value is on record?
Answer: The value was “soluble”.

Question: Which “soluble on expression in E. coli” value does the source give for “MSTQEDFLKRLESVTSRLEAIAGQKPALAPKPTNLGGPSAYSLHFFFALQFYFSSSPPTSTMDSLYYSAPRPFNKYPRGYRPVTDSTQDLRSFGGGLRPSSSWSSFPQQVVIDQRSATLPHFPSSCVSPVSPTSPVDRNTNYWTAEEPPRSRRPIRSESNSTLFDNNFSPRELSPLSVASEYCNNPQPASMYGHRSVQSPVPAFQDAPPRGYDNVPPPQSYKQPTHPSPSQRETDFLRNLQRQKAEAHNMSSSWYAGDQSSRQTDFGTLPSPQHYNSNSSDHHPPRRLAKTQSDLSFDSLNNTYFNNTSNHTPSNTFLNHSTVDSHNNSSGQLHNSINNYTASTNGNQGHRLDGFFRNRVIEPNWMTDPPPPKSFREDYIIRNAPLNSNLNSDFERFRLEPTYREPRGNSLVSEQPNFRSYHNDEPTQEQPNPRYQRSSSNFMQQRDPSPVRSPPIISYAQQSNPFSFPNPINQVNYNQEDHSSRVSTGGYQDRRVAQAPKEATTNVYQNVPAAAAVNFREKERPTSQYLESNRNSAAFPNEPIKLTNDRVLRIHPHQQVQDQYHHHQMPEEPHYPQPHQPIQQSQRARIQSPLRDFARLTSPIREVAPQPYHPPQAQNQNQNPERIFSPVESKVFNRSGPTVINGFTSNRHTYNSHTDDFDSRNRRDSSQPPVAIIEPNINVHMPSDPMPYNKPHFGHGHGHSNGNNNVHSVKPTSHYSNPTFSPTSTFSPNSNYDNDNDSDLDIEEMARRALPRYLRDNEKTGRHRNLYGDNLHGILIKNPSLHRSSSKKVVFIDQNKASAAASAGDSGEVPAHVRAYDDAIEEPLANWSKLTDQLGGDLAAVKPKVLAMFASMRNYLWSAAGKSEPSAEEAQKMLTPVINLLGEINNFKDTKRKTPHWNHLNSVAEALPALGWVTVKKTPAPYVKEFIEAAQFYINPILREFKETDPRHVEWTKAWKAVFEEMQKFVRQVHTTGLVWNSAPGAAPDASASAPSAAAPSAPKAPAGPGGPPPPPPPPPADFFANIAPPPVDADKASRDALFASLNQGEGVTSRLKKVTADMQTHKNPNLRGTAVVPAAGASQGGSSPAKPAAPVRKPPHKELENGKQWIVEYFVNDPNIVLDVADKKQTVYIYRCENSVIKVNGKANSITLDGCKKTSVVFDALVAQCETVNCQSVQIQTLGELPTLSIQKTDGCQVYLSKVAQGCEIVTSKSSEMNISVQTNDDGDYSEFPVPEQFKTTFVNGKLVTVVSDIC” here?
Answer: The value was “not soluble”.

Question: For “MTKFILLALVGLAAAIDFDSSSSESCEDGNGHGHGHGNGNGNGNGNGNGNGGRANGGCETGWRHFRRPSGSWCVRVFGGRLNQGAAQSQCQSFGATLSGLRNLEEARTISNLALSVIGRSSGGIWLGARRTTACAKQHKTTSCSTTSSFRWTDSSASGTAGFVWNNVQPDNSDLNSQCAVLHAGSSAATVSNAVWQPAMMDDVTCSFDPAGRDPRSIYGYVCGKKPSRR”, which “soluble on expression in E. coli” value is on record?
Answer: Its value is “not soluble”.
